Columns and labels:
fog1_mouse Zfpm1 [1] = target: fog1_mouse Zfpm1 (UniProt O35615)
fog1_mouse Zfpm1 [2] = target: fog1_mouse Zfpm1 (UniProt O35615); remark: listed apart in the source
fog1_mouse Zfpm1 [3] = target: fog1_mouse Zfpm1 (UniProt O35615); remark: listed apart in the source

Sequence of Erythroid transcription factor (Homo sapiens), P15976 G208S (P15976 whole entry G208S): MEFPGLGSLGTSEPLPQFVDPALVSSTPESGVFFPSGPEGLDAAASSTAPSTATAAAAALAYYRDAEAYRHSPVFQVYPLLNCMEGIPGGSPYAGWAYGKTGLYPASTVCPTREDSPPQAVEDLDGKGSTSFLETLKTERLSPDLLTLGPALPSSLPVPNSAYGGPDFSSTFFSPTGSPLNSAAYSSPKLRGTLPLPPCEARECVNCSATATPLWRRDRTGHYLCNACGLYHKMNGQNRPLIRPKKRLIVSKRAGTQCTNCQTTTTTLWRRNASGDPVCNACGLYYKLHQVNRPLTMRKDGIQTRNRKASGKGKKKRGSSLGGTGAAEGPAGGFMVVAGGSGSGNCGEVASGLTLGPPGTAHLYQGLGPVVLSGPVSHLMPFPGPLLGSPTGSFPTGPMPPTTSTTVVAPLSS
Sequence of fog1_mouse Zfpm1 (O35615 whole entry): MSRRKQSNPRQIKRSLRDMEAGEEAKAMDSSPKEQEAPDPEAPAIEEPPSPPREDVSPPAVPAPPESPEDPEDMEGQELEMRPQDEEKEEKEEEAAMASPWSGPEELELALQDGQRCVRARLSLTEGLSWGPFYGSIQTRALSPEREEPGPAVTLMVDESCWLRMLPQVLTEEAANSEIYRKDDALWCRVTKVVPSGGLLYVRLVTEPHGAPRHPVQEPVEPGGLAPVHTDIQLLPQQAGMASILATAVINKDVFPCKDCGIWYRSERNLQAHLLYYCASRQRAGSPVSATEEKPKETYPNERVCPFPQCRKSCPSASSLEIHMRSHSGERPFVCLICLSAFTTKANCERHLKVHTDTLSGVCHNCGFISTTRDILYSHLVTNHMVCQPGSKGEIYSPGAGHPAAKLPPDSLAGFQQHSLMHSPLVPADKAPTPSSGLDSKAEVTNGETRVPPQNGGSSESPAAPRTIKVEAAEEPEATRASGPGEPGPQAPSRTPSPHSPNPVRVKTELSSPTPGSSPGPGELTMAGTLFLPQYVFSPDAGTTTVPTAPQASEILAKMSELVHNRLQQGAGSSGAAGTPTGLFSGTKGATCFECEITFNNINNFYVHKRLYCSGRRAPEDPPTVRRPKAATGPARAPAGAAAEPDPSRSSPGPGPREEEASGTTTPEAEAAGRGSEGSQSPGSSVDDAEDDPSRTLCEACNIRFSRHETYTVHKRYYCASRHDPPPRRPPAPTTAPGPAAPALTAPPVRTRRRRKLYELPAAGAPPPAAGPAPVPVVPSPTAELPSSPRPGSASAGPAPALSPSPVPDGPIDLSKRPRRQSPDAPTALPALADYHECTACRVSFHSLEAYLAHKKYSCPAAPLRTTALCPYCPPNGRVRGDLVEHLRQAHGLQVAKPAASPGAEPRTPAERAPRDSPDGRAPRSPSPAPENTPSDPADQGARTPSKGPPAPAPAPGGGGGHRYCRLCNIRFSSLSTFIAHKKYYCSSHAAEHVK

“Erythroid transcription factor (Homo sapiens), P15976 G208S” was tested, and the “effect of a mutation on the interaction” value (fog1_mouse Zfpm1 [1]) was “with no effect”, the “effect of a mutation on the interaction” value (fog1_mouse Zfpm1 [2]) was “increasing interaction strength” and the “effect of a mutation on the interaction” value (fog1_mouse Zfpm1 [3]) was “decreasing interaction strength”.

— IntAct's records for PubMed 11675338
